Ends that are not written are not given here. * marks the point of attachment. Biotin = O=C1N[C@H]2[C@H](CS[C@H]2CCCCC(=O)*)N1

In assay [1] the target is T1, KIAA0807 (PDZ domain)-GST fusion protein (human, UniProt Q6P0Q8 1104-1192).
T1 construct: also called K807; KIAA807; not shown: glutathione S-transferase encoded by vector pGEX-3X (Pharmacia)
T1 sequence: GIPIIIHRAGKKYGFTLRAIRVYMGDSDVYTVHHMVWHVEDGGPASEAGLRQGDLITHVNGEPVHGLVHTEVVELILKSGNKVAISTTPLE
As to the kind of experiment: G assay competition against 10 uM DOCK2 20-mer; acetyl-STDL competing against 10 uM DOCK2 20-mer.

In assay [2] the target is T2, GST-41.8 kD protein (KIAA0751) PDZ domain fusion protein (Mus musculus (Mouse), UniProt Q9EQZ7 682-763).
T2 construct: also called 41 kd; hypoth; not shown: glutathione S-transferase encoded by vector pGEX-3X (Pharmacia)
T2 sequence: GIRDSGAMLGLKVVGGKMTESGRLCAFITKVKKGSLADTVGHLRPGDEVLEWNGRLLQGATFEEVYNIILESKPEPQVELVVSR
Briefly: G assay competition on plate-bound GST-41.8kD; blocked ligand: 20 uM biotinylated CD49E peptide.

For assay [3], the target named is T1, KIAA0807 (PDZ domain)-GST fusion protein. Briefly: G assay competition against 1 uM BLR-1 20-mer.
Assay [4] has the same target. As to the kind of experiment: G assay competition against 10 uM DOCK2 20-mer; 8-mer DOCK2 peptide competing against 10 uM DOCK2 20-mer.
Assay [5] concerns the target T3, GST-PSD95 fusion protein (PDZ domains 1-3) (human, UniProt P31016 56-395 (rat entry)).
T3 construct: also called human post-synaptic density protein 95; not shown: glutathione S-transferase encoded by vector pGEX-3X (Pharmacia)
Briefly: G assay competition on plate-bound GST-PSD95, competitor at 100 uM; blocked ligands: biotinylated Clasp 2 and CD46 (20 uM), Fas and KV1.3 (10 uM) peptides.

In assay [6] the target is T3, GST-PSD95 fusion protein (PDZ domains …). Briefly: G assay: biotinylated peptide on plate-bound GST-PDZ fusion, OD 450 nm.

T3 sequence (P31016 other isoform, or with tags, fused parts or gaps): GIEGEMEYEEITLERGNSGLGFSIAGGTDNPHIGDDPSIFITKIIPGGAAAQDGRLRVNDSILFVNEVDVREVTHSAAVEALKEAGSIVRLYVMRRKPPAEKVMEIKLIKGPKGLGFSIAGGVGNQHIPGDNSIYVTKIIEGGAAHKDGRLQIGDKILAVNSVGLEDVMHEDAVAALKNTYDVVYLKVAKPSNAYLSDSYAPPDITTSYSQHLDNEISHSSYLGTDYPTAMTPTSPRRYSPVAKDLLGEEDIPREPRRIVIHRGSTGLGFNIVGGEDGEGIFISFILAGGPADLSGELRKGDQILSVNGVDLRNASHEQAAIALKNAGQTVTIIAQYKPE

As for Ac-STDL (it is an N-acetyl tetrapeptide) [acetyl-STDL], the 50% inhibitory concentration (IC50) in assay [1] is below 250 µM.
Take ATSDA (also called 5-mer CD49E peptide ATSDA) [CD49E 5mer]: the binding result in assay [2] is reported as “binds”.
In assay [3], Ac-LTTF (it is an N-acetyl tetrapeptide) [acetyl-LTTF] returned an IC50 of 1000 nM.
In the case of PDSLSTDL (also called DOCK2 8-mer) [8-mer peptide corresponding to the C-terminus of DOCK2], the half-inhibitory concentration (IC50) in assay [4] came out at 250 µM.

B1: Fas (CD95) 8-mer competitor peptide RNEIQSLV (unlabeled) (peptide)
peptide: RNEIQSLV
notes: also called FAS-8-mer; 8-mer peptide corresponding to the C-terminus of CD95 (Fas)
Consider B1, for which the binding result in assay [5] is reported as “binds”.
Regarding TTNNNPNSAVNIKKIFTDV (also called KV13 peptide) [unlabeled 19-mer having the sequence of the C-terminus of KV1.3 (non-biotinylated AA33L)], the binding result in assay [5] was “binds”.

B2: 30 (peptide)
peptide: Biotin-TIYENLAPVTTFGKTIA
notes: Not the same peptide as m50 (AA19L, ending GYIA); the key gives AA55L for peptide 30; also called CD148
With B2, the binding result in assay [6] was “no binding”.
On to REVKFTSL [CD46 8-mer competitor peptide REVKFTSL (unlabeled)], for which the binding result in assay [5] was “binds”.
In turn, NATSLTTF (also called BLR-1 8-mer) [8-mer peptide corresponding to the C-terminus of BLR-1] came in with an IC50 in assay [3] above 100000 nM.

By IC50 is commonly meant the midpoint of a concentration-inhibition curve.

Values taken from patent publication US20050037969A1 (ARBOR VITA, published 2005).
